According to PMC11618073:

Tests used:
[1] = target: heterotypic S. cerevisiae nucleosome (one Htz1–H2B dimer and one H2A–H2B dimer) (S. cerevisiae) (UniProt P04911); assay: FRET or BRET; single-molecule FRET (prism-TIRF); biotinylated nucleosome or hexasome with Cy3 on the 2-bp DNA overhang immobilised via neutravidin; 10 nM SWR1(647N) injected; 25 mM Tris-HCl pH 7.8, 100 mM KCl, 4% glycerol, 1 mM EDTA, 2 mM MgCl2, 0.2 mg/ml BSA; room temperature; 100-ms frames
[2] = target: canonical S. cerevisiae nucleosome (two H2A–H2B dimers) on Widom 601 DNA (S. cerevisiae) (UniProt P04911); assay: single-molecule fluorescence colocalisation; surface-immobilised 113N2.AF488 nucleosome; 5 nM SWR1(647N) with 1 mM ATP injected; 25 mM Tris-HCl pH 7.8, 100 mM KCl, 4% glycerol, 1 mM EDTA, 2 mM MgCl2, 0.2 mg/ml BSA; 22 °C; time to bind and bound lifetime from tMAVEN

dwell time on the Htz1–H2B face (single fast exponential decay) [1]: 0.63 s
lifetime of the bound complex (stably bound species) [2]: 19 min
time to bind [2]: 6.58 min
Substance: SWR1(Atto647N–Arp6) (from UniProt Q05471 1-1514; Q12509 1-438; Q03433 1-280; Q03388 1-795; Q03940 1-463; Q12464 1-471; P38326 1-303) (complex)
